{"source": "paper PMC9307851", "binders": {"B1": {"name": "24-mer DNA duplex (GAC)8 (dsDNA)", "DNA 1": "GACGACGACGACGACGACGACGAC", "DNA 2": "GTCGTCGTCGTCGTCGTCGTCGTC"}}, "key": {"[1]": {"molecular_target": "DNMT3B MTase domain R670Q (human, UniProt Q9UBC3 569-853, R670Q)", "assay": "ITC; 5 C; N fixed at 0.5; ITC: 20 mM Tris-HCl pH 7.2, 200 mM NaCl, 5% glycerol, 2 mM b-mercaptoethanol, 5 C; EMSA: 50 mM Tris-HCl pH 8.0, 25% glycerol, 8% glucose, 2 mM DTT, 0.1 mg/mL BSA, 30 min, gel in 0.5x TBE at 4 C", "settings": "protein: recombinant; tags: His6-MBP removed by TEV; (only upper strand given)"}, "[2]": {"molecular_target": "DNMT3B MTase domain L664P (human, UniProt Q9UBC3 569-853, L664P)", "assay": "ITC; 5 C; N.M. (not measurable); text says much reduced; ITC: 20 mM Tris-HCl pH 7.2, 200 mM NaCl, 5% glycerol, 2 mM b-mercaptoethanol, 5 C; EMSA: 50 mM Tris-HCl pH 8.0, 25% glycerol, 8% glucose, 2 mM DTT, 0.1 mg/mL BSA, 30 min, gel in 0.5x TBE at 4 C", "settings": "protein: recombinant; tags: His6-MBP removed by TEV; (only upper strand given)"}}, "data": [{"binder": "B1", "values": [{"measurement": "Kd", "setting": "[1]", "value": "24.4 ± 4.4", "unit": "µM"}, {"measurement": "binding result", "setting": "[2]", "value": "no binding"}]}]}
